Measured values from the Human Domainome abundance scans (Beltran et al. 2025).
± gives the uncertainty stated by the source.

B1: Membrane-associated guanylate kinase, WW and PDZ domain-containing protein 2, residues 601 to 682; numbered along this chain, Q86UL8 (parent)
chain: AELMTLTIVKGAQGFGFTIADSPTGQRVKQILDIQGCPGLCEGDLIVEINQQNVQNLSHTEVVDILKDCPIGSETSLIIHRG

Variants of: B1
Experiment: abundance fitness (aPCA) (normalised: wild type 0, dead -1); higher = more abundant; growth selection in yeast, the domain comes from the species named
Conditions: Homo sapiens

Variant | abundance fitness
G39L | -0.22 ± 0.14
G39M | -0.192 ± 0.16
G39H | 0.069 ± 0.25
G39R | -0.167 ± 0.16
G39K | -0.192 ± 0.2
G39N | -0.043 ± 0.24
G39D | -0.197 ± 0.17
G39E | -0.255 ± 0.14
D21S | -0.054 ± 0.083
D21K | -0.039 ± 0.2
D21M | 0.079 ± 0.24
D21P | -0.048 ± 0.14
D21H | -0.068 ± 0.45
D21L | 0.084 ± 0.11
D21A | -0.126 ± 0.087
D21G | -0.082 ± 0.081
D21Y | -0.099 ± 0.15
D21N | -0.105 ± 0.45
D21F | -0.208 ± 0.33
D21C | -0.14 ± 0.1
D21E | -0.023 ± 0.12
D21W | -0.111 ± 0.065
D21V | -0.064 ± 0.078
A20M | 0.228 ± 0.45

Variant | abundance fitness
A20Q | 0.217 ± 0.28
A20K | -0.026 ± 0.18
A20R | -0.172 ± 0.081
A20V | -0.11 ± 0.085
A20N | -0.142 ± 0.17
A20G | -0.069 ± 0.1
A20I | 0.203 ± 0.27
A20S | 0.003 ± 0.1
A20E | -0.147 ± 0.16
V28N | -0.564 ± 0.29
V28P | -1.09 ± 0.37
V28Q | -0.718 ± 0.38
V28E | -1.03 ± 0.27
V28G | -0.655 ± 0.1
V28T | -0.538 ± 0.34
V28L | -0.215 ± 0.095
V28A | -0.305 ± 0.22
V28C | -0.077 ± 0.14
V28I | 0.144 ± 0.23
V28S | -0.849 ± 0.2
L32D | 0.022 ± 0.16
L32S | 0.024 ± 0.09
L32K | -0.295 ± 0.12
L32Q | -0.212 ± 0.25

Variant | abundance fitness
L32P | -0.119 ± 0.13
L32I | -0.057 ± 0.13
L32V | 0.052 ± 0.12
L32R | -0.069 ± 0.082
L32G | 0.021 ± 0.059
L32Y | -0.16 ± 0.3
L32A | -0.218 ± 0.27
L32C | -0.197 ± 0.18
L32N | -0.124 ± 0.29
L32T | -0.023 ± 0.12
L32M | 0.035 ± 0.24
L32W | -0.158 ± 0.22
I19H | 0.134 ± 0.13
I19Q | -0.708 ± 0.32
I19W | -0.203 ± 0.1
I19G | -1.31 ± 0.28
I19P | -0.023 ± 0.36
I19S | -0.634 ± 0.17
I19Y | -0.148 ± 0.12
I19E | -0.872 ± 0.4
I19R | -1.16 ± 0.25
I19C | -0.335 ± 0.38
I19A | -0.542 ± 0.19
I19L | -0.012 ± 0.085

Variant | abundance fitness
I19T | -0.169 ± 0.12
R27A | -0.042 ± 0.17
R27V | 0.047 ± 0.12
R27G | -0.107 ± 0.1
R27E | -0.173 ± 0.1
R27C | -0.589 ± 0.47
R27S | -0.158 ± 0.096
R27P | -0.382 ± 0.18
R27D | -0.42 ± 0.3
R27I | 0.047 ± 0.3
R27L | -0.007 ± 0.12
R27H | -0.089 ± 0.21
R27M | -0.066 ± 0.29
R27T | 0.021 ± 0.11
R27W | -0.054 ± 0.18
T18P | -1.1 ± 0.12
T18Y | -0.032 ± 0.093
T18G | -0.068 ± 0.032
T18H | -0.134 ± 0.073
T18C | -0.044 ± 0.049
T18V | -0.024 ± 0.033
T18S | -0.013 ± 0.038
T18M | -0.061 ± 0.052
T18K | 0.044 ± 0.06

Variant | abundance fitness
T18I | 0.008 ± 0.065
T18W | -0.075 ± 0.04
T18E | 0 ± 0.039
T18Q | -0.066 ± 0.048
T18D | -0.011 ± 0.064
T18L | 0.01 ± 0.038
T18N | 0.001 ± 0.086
T18F | -0.149 ± 0.088
G25Y | -0.177 ± 0.1
G25L | -0.538 ± 0.056
G25K | -0.267 ± 0.089
G25P | -0.371 ± 0.075
G25T | -0.318 ± 0.062
G25S | -0.185 ± 0.051
G25M | -0.191 ± 0.062
G25C | -0.17 ± 0.08
G25Q | -0.255 ± 0.058
G25V | -0.514 ± 0.051
G25A | -0.046 ± 0.041
G25N | -0.162 ± 0.079
G25D | -0.766 ± 0.23
G25F | -0.314 ± 0.19
G25E | -0.127 ± 0.061
G25W | -0.531 ± 0.069

Variant | abundance fitness
G25R | -0.356 ± 0.04
C37T | -0.05 ± 0.15
C37I | -0.173 ± 0.27
C37K | -0.208 ± 0.11
C37D | -0.052 ± 0.1
C37W | -0.287 ± 0.18
C37Y | -0.036 ± 0.21
C37S | 0.012 ± 0.18
C37A | -0.195 ± 0.11
C37F | 0.204 ± 0.49
C37V | -0.119 ± 0.099
C37Q | -0.113 ± 0.16
C37P | -0.384 ± 0.18
C37E | 0.005 ± 0.12
C37R | -0.163 ± 0.08
C37G | -0.28 ± 0.097
C37M | -0.16 ± 0.15
I31G | -0.11 ± 0.084
I31M | -0.084 ± 0.12
I31Q | -0.091 ± 0.22
I31Y | -0.221 ± 0.14
I31R | -0.283 ± 0.081
I31L | 0.011 ± 0.083
I31P | -0.181 ± 0.28

Variant | abundance fitness
I31K | 0.197 ± 0.41
I31W | -0.665 ± 0.15
I31V | -0.035 ± 0.084
I31C | -0.185 ± 0.093
I31S | -0.251 ± 0.079
I31N | -0.219 ± 0.21
I31H | -0.316 ± 0.31
I31A | -0.101 ± 0.31
I31T | -0.097 ± 0.089
G36V | -0.009 ± 0.1
G36M | 0.04 ± 0.13
G36S | -0.158 ± 0.081
G36L | -0.261 ± 0.22
G36Q | -0.054 ± 0.2
G36R | -0.069 ± 0.08
G36H | -0.126 ± 0.32
G36A | -0.241 ± 0.24
G36P | -0.057 ± 0.15
G36T | 0.064 ± 0.21
G36N | 0.055 ± 0.21
G36E | 0.037 ± 0.17
G36C | -0.044 ± 0.09
G36F | -0.245 ± 0.22
